Test results published in PMC5610242, “Stapled peptide inhibitors of RAB25 target context-specific phenotypes in cancer” (Nature Communications, 2017).
Bridge positions count the residues as written; N and C are the ends. Square brackets hold non-standard residues; d marks the D form. Ends that are not written are not given here. Peptide text beside a SMILES is read from it. * marks the point of attachment. FITC = O=C1OC2(c3ccc(O)cc3Oc3cc(O)ccc32)c2ccc(NC(=S)*)cc21; Met(O) = CS(=O)CC[C@H](N)C(=O)O; S5 = C=CCCC[C@](C)(N)C(=O)O; Nle = CCCC[C@H](N)C(=O)O; PEG = not defined here; βAla = NCCC(=O)O

T1: RAB11a (activated Q70L mutant) (Homo sapiens, UniProt P62491, Q70L)
T1 construct: GST-RAB11a (1–173, Q70L mutant) in pGEX5x-1; made in house; host or cells: E. coli BL21
T1 sequence (P62491 1-173 Q70L): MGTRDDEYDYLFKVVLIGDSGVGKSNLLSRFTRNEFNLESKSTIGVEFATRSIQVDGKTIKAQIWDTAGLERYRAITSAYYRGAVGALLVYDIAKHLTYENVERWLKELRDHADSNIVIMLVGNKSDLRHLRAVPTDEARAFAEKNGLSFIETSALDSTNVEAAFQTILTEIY

T2: RAB25 (Homo sapiens, UniProt P57735)
T2 construct: GST-RAB25 (1–180) in pET41 Ek/LIC; made in house; host or cells: E. coli BL21
T2 sequence (P57735 1-180): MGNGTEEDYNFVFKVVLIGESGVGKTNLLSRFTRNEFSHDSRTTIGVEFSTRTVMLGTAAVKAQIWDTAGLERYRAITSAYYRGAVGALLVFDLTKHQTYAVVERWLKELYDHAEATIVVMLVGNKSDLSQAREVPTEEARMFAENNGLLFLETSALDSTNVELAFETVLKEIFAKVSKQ

T3: GST-RAB25 (1-180) (UniProt P57735 1-180)
T3 construct: RAB25, residues 1-180, in pET41 Ek/LIC; source: E. coli BL21, purified (glutathione sepharose, Superdex 75 gel filtration)
T3 sequence (looked up): T2 sequence (P57735 1-180)

T4: GST-RAB11a (1-173, Q70L mutant) (UniProt P62491 1-173, Q70L)
T4 construct: source: E. coli BL21, purified (glutathione sepharose, Superdex 75 gel filtration)
T4 sequence (looked up): T1 sequence (P62491 1-173 Q70L)

T5: His6-RAB25 (1–180) (UniProt P57735 1-180)
T5 chain: T2 sequence (P57735 1-180)

B1: FITC-RFP13 (FIP3-derived stapled peptide, 'IDR' staple) (peptide)
chain: {FITC-PEG-βAla}-RINFRLQD[S5]IDR[S5]IVAIMETNPSILEVK
modifications: staple 9-13; reading uncertain
B2: FITC-RFP12 (FIP3-derived stapled peptide, 'IME' staple) (peptide)
chain: {FITC-PEG-βAla}-RINFRLQDYIDRIIV[S5]IME[S5]NPSILEVK
modifications: staple 16-20; reading uncertain
B3: FITC-RFP2 (unmodified FIP2 RAB-binding domain peptide) (peptide)
peptide: {FITC-PEG}-ERDTHIRELEDYIDNLLVRVMEETPSILRVPR
modifications: reading uncertain
notes: limits worked out from the printed L485, V486 and M489; also called fRFP2; FIP2 peptide; source: synthetic peptide (Fmoc solid phase, HPLC purified)
B4: FITC-RFP8 (FIP1-derived stapled peptide, 'IME' staple) (peptide)
chain: {FITC-PEG-βAla}-RQVRELEDYIDRLLV[S5]VME[S5]TPNILRIPR
modifications: staple 16-20; reading uncertain
B5: FITC-RFP14 (optimized stapled peptide, 'IME' staple) (peptide)
chain: {FITC-PEG-βAla}-RQVRELENYIDRLLV[S5]V[Nle]E[S5]TPNILRIPR
modifications: staple 16-20; reading uncertain
B6: FITC-RFP4 (unmodified FIP4 RAB-binding domain peptide) (peptide)
peptide: {FITC-PEG}-EQEEINFRLRQYMDKIILAILDHNPSILEIKH
modifications: reading uncertain
notes: also called fRFP4; FIP4 peptide; source: synthetic peptide (Fmoc solid phase, HPLC purified)
B7: FITC-RFP11 (FIP3-derived stapled peptide, 'IIV' staple) (peptide)
chain: {FITC-PEG-βAla}-RINFRLQDYID[S5]IIV[S5]IMETNPSILEVK
modifications: staple 12-16; reading uncertain
B8: FITC-RFP26 (optimized stapled peptide, 'IDR' staple) (peptide)
chain: {FITC-PEG-βAla}-RINFRLQN[S5]IDR[S5]IVRI[Nle]ETNPSILRVK
modifications: staple 9-13; reading uncertain
B9: FITC-RFP9 (FIP1-derived stapled peptide, 'IDR' staple) (peptide)
chain: {FITC-PEG-βAla}-RQVRELED[S5]IDR[S5]LVRVMEETPNILRIPR
modifications: staple 9-13; reading uncertain
B10: FIP3 peptide (residues 726–756) (peptide)
peptide: KQEEINFRLQDYIDRIIVAIMETNPSILEVK
B11: FITC-RFP10 (FIP3-derived stapled peptide, 'YID' staple) (peptide)
chain: {FITC-PEG-βAla}-RINFRLQ[S5]YID[S5]IIVAIMETNPSILEVK
modifications: staple 8-12; reading uncertain
B12: FITC-RFP6 (FIP1-derived stapled peptide, 'YID' staple) (peptide)
chain: {FITC-PEG-βAla}-RQVRELE[S5]YID[S5]LLVRVMEETPNILRIPR
modifications: staple 8-12; reading uncertain
B13: FITC-RFP7 (FIP1-derived stapled peptide, 'IIV' staple) (peptide)
chain: {FITC-PEG-βAla}-RQVRELEDYID[S5]LLV[S5]VMEETPNILRIPR
modifications: staple 12-16; reading uncertain
B14: FITC-RFP5 (FIP3 RAB-binding domain peptide with oxidised methionine) (peptide)
peptide: {FITC-PEG}-KQEEINFRLQDYIDRIIVAI[Met(O)]ETNPSILEVK
modifications: reading uncertain
notes: also called fRFP5; source: synthetic peptide (separable byproduct of chemical synthesis, HPLC purified)
B15: FITC-RFP24 (optimized stapled peptide, 'IDR' staple) (peptide)
chain: {FITC-PEG-βAla}-RINFRLQN[S5]IDR[S5]IVRIFETNPSILRVK
modifications: staple 9-13; reading uncertain
B16: FITC-RFP1 (unmodified FIP1 RAB-binding domain peptide) (peptide)
peptide: {FITC-PEG}-KKEFQVRELEDYIDNLLVRVMEETPNILRIPA
modifications: reading uncertain
notes: also called fRFP1; FIP1 peptide; source: synthetic peptide (Fmoc solid phase, HPLC purified)
B17: FITC-RFP3 (unmodified FIP3 RAB-binding domain peptide) (peptide)
peptide: {FITC-PEG}-KQEEINFRLQDYIDRIIVAIMETNPSILEVK
modifications: reading uncertain
notes: also called fRFP3; FIP3 peptide; source: synthetic peptide (Fmoc solid phase, HPLC purified)

Experiments:
[1] = biological target: T1, RAB11a (activated Q70L mutant); test: Fluorescence polarization binding of FITC-labeled RFP peptides to RAB11a; conditions: FP
Experimental: (§1) Fluorescence polarization assays were performed with for GST-RAB25 and GST-RAB11a to quantify binding to FITC-labeled unmodified and stapled RFP peptides. Initial fluorescence polarization measurements for RFP1−RFP13 were made by incubating FITC-RFP peptides (25 nM) with threefold dilutions of a given protein in FP buffer, consisting of 20 mM Tris pH 8.0, 150 mM NaCl, 5 mM MgCl2, 2 mM DTT, 10 μM GTP and 2% glycerol. Dilutions and incubations were performed in 96-well, black flat-bottom plates (Nunc) to a total volume of 100 μL, and equilibrated at room temperature for 30 min. Polarization was measured on a Spetramax-M5 multi-label plate reader (Molecular Devices) with λ ex = 485 nm and λ em = 525 nm. Polarization values were determined using the equation: P = (V − H)/(V + H), where P denotes polarization, V denotes vertical emission intensity and H represents horizontal emission intensity. Fraction bound was calculated using the equilibrium maximum polarization value obtained for a given protein among ligands, to which background-subtracted fluorescence polarization values were internally normalized. Fluorescence polarization measurements for FITC-RFP14, 24, 26, 31, and 32 were performed as detailed above with the exception that 10 nM FITC-ligand was used.

RAB25 = biological target: T2, RAB25; test: Fluorescence polarization binding of FITC-labeled RFP peptides to RAB25; conditions: FP, 30 min room temperature
Experimental: as §1

GST-RAB25 (1-180) [2] = biological target: T3, GST-RAB25 (1-180); test: fluorescence polarisation; FITC-peptide 25 nM with threefold dilutions of GST-RAB protein; 20 mM Tris pH 8.0, 150 mM NaCl, 5 mM MgCl2, 2 mM DTT, 10 µM GTP, 2% glycerol; room temperature, 30 min; apparent Kd from a sigmoidal (4-parameter) fit, 95% confidence interval; conditions: both partners purified
[3] = biological target: T4, GST-RAB11a (1-173, Q70L mutant); test: as above; conditions: both partners purified
[4] = biological target: T4, GST-RAB11a (1-173, Q70L mutant); test: fluorescence polarisation; as for RFP1-13 but FITC-ligand 10 nM, with threefold dilutions of GST-RAB protein; 20 mM Tris pH 8.0, 150 mM NaCl, 5 mM MgCl2, 2 mM DTT, 10 µM GTP, 2% glycerol; room temperature, 30 min; apparent Kd from a sigmoidal (4-parameter) fit, 95% confidence interval; conditions: both partners purified
GST-RAB25 (1-180) [5] = biological target: T3, GST-RAB25 (1-180); test: as above; conditions: both partners purified
His6-RAB25 (1–180) = biological target: T5, His6-RAB25 (1–180); test: competition with bio-RFP14 (ALPHAscreen)
GST-RAB25 (1-180) [6] = biological target: GST-RAB25 (1-180) (UniProt P57735); test: fluorescence polarisation; FITC-peptide 25 nM with threefold dilutions of GST-RAB protein; 20 mM Tris pH 8.0, 150 mM NaCl, 5 mM MgCl2, 2 mM DTT, 10 µM GTP, 2% glycerol; room temperature, 30 min; apparent Kd from a sigmoidal (4-parameter) fit, 95% confidence interval

| Molecule | Kd (GST-RAB25 (1-180) [2]) [nM] | Kd [3] [nM] | other results |
| --- | --- | --- | --- |
| CC[C@H](C)[C@H](NC(=O)[C@H](CCCNC(=N)N)NC(=O)[C@H](C)NC(=O)[C@H](C)NC(=O)[C@]1(C)CCCC=CCCC[C@](C)(NC(=O)[C@H](CC(N)=O)NC(=O)[C@H](CCC(N)=O)NC(=O)[C@H](CC(C)C)NC(=O)[C@H](CCCNC(=N)N)NC(=O)[C@H](Cc2ccccc2)NC(=O)[C@H](CC(N)=O)NC(=O)[C@@H](NC(=O)[C@H](CCCNC(=N)N)NC(=O)CCNC(=O)[C@@H](N)Cc2c[nH]c3ccccc23)[C@@H](C)CC)C(=O)N[C@@H]([C@@H](C)CC)C(=O)N[C@@H](CC(=O)O)C(=O)N[C@@H](CCCNC(=N)N)C(=O)N1)C(=O)N[C@@H](C)C(=O)N[C@@H](CCC(=O)O)C(=O)N[C@H](C(=O)N[C@@H](CC(N)=O)C(=O)N1CCC[C@H]1C(=O)N[C@@H](CO)C(=O)N[C@H](C(=O)N[C@@H](CC(C)C)C(=O)N[C@@H](CCCNC(=N)N)C(=O)N[C@H](C(=O)N[C@@H](CCCCN)C(N)=O)C(C)C)[C@@H](C)CC)[C@@H](C)O [RFP32] (H-W[βAla]RINFRLQN[S5]IDR[S5]AARIAETNPSILRVK-NH2; staple 11-15) |  |  | Kd ([1]; 10 nM FITC-ligand, GST-RAB11a (1–173, Q70L), FP buffer pH 8.0 with 10 μM GTP, 30 min room temperature, mean with 95% C.I., triplicate, read-out: apparent Kd (95% C.I.) RAB11a): > 5000 nM; Kd (RAB25; 10 nM FITC-ligand, GST-RAB25, FP buffer pH 8.0 with 10 μM GTP, mean with 95% C.I., triplicate, read-out: apparent Kd (95% C.I.) RAB25): > 5000 nM |
| FIP2: unmodified Class-I peptide encompassing the RAB-binding domain of FIP2, FITC-labeled ({FITC-PEG}-ERDTHIRELEDYIDNLLVRVMEETPSILRVPR; reading uncertain) |  |  | binding to RAB11a (in words) ([1]; 25 nM FITC-RFP peptide, 30 min room temperature): essentially no binding; binding to RAB25 (in words) (RAB25; 25 nM FITC-RFP peptide): essentially no binding |
| RFP5: peptide with oxidation of a methionine involved in binding, a separable byproduct of chemical synthesis ({FITC-PEG}-KQEEINFRLQDYIDRIIVAI[Met(O)]ETNPSILEVK; reading uncertain) |  |  | loss of binding affinity for RAB11a on methionine oxidation ([1]; relative to non-oxidised peptide): ~ fivefold |
| B1 | 40 | 80 |  |
| B2 | 30 | 20 |  |
| B3 | > 5000 | > 5000 |  |
| B4 | 170 | 40 |  |
| B5 |  |  | Kd [4]: 320 nM |
| B6 | 2300 | 930 |  |
| B7 | 50 | 7 |  |
| B8 |  |  | Kd (GST-RAB25 (1-180) [5]): 20 nM; Kd [4]: 90 nM |
| B9 | 1200 | 2400 |  |
| B10 |  |  | IC50 (His6-RAB25 (1–180)): > 10000 nM |
| B11 | > 5000 | > 5000 |  |
| B12 | > 5000 | > 5000 |  |
| B13 | 510 | 110 |  |
| B14 |  | > 5000 | Kd (GST-RAB25 (1-180) [6]): > 5000 nM |
| B15 |  |  | Kd (GST-RAB25 (1-180) [5]): 160 nM; Kd [4]: 560 nM |
| B16 | > 5000 | > 5000 |  |
| B17 |  | 2300 | Kd (GST-RAB25 (1-180) [6]): > 5000 nM |
